B1: 1-332 c-mpl ligand P(46)L, W(200)R (pMON26451-4) (ligand)
chain: SPAPPACDLRVLSKLLRDSHVLHSRLSQCPEVHPLPTPVLLPAVDLSLGEWKTQMEETKAQDILGAVTLLLEGVMAARGQLGPTCLSSLLGQLSGQVRLLLGALQSLLGTQLPPQGRTTAHKDPNAIFLSFQHLLRGKVRFLMLVGGSTLCVRRAPPTTAVPSRTSLVLTLNELPNRTSGLLETNFTASARTTGSGLLKRQQGFRAKIPGLLNQTSRSLDQIPGYLNRIHELLNGTRGLFPGPSRRTLGAPDISSGTSDTGSLPPNLQPGYSPSPTHPPTPLLPDPSAPTPTPTSPLLNTSYTHSQNLSQEG
B2: 1-153 c-mpl ligand (pMON26448) (ligand)
chain: SPAPPACDLRVLSKLLRDSHVLHSRLSQCPEVHPLPTPVLLPAVDFSLGEWKTQMEETKAQDILGAVTLLLEGVMAARGQLGPTCLSSLLGQLSGQVRLLLGALQSLLGTQLPPQGRTTAHKDPNAIFLSFQHLLRGKVRFLMLVGGSTLCVR
B3: 1-153 Δ112-115 c-mpl ligand (pMON26450) (ligand)
chain: SPAPPACDLRVLSKLLRDSHVLHSRLSQCPEVHPLPTPVLLPAVDFSLGEWKTQMEETKAQDILGAVTLLLEGVMAARGQLGPTCLSSLLGQLSGQVRLLLGALQSLLGTQGRTTAHKDPNAIFLSFQHLLRGKVRFLMLVGGSTLCVR
B4: 1-332 Δ112-115 c-mpl ligand (pMON26451-3) (ligand)
chain: SPAPPACDLRVLSKLLRDSHVLHSRLSQCPEVHPLPTPVLLPAVDFSLGEWKTQMEETKAQDILGAVTLLLEGVMAARGQLGPTCLSSLLGQLSGQVRLLLGALQSLLGTQGRTTAHKDPNAIFLSFQHLLRGKVRFLMLVGGSTLCVRRAPPTTAVPSRTSLVLTLNELPNRTSGLLETNFTASARTTGSGLLKWQQGFRAKIPGLLNQTSRSLDQIPGYLNRIHELLNGTRGLFPGPSRRTLGAPDISSGTSDTGSLPPNLQPGYSPSPTHPPTGQYTLFPLPPTLPTPVVQLHPLLPDPSAPTPTPTSPLLNTSYTHSQNLSQEG

What follows are binders tested against T1, human c-mpl-R (human, UniProt P40238) (assay: cell-based or functional assay).

Compared with B1, B2 is lower in “TF1 Proliferation Assay: total counts tritiated thymidine incorporation, 10% supernatants” value: 122000 total counts for the first, 115000 total counts for the second.

Going from B3 to B4, the “TF1 Proliferation Assay: total counts tritiated thymidine incorporation, 10% supernatants” value falls from 60800 total counts to 35600 total counts.

Biological target: T1, human c-mpl-R
Assay: cell-based or functional assay
Remark: another data set of the same source

Compared with B1, B2 is higher in “Bone Marrow Proliferation Assay: Cells/Well after 10 Day Culture of CD34+ enriched cells” value: 16000 cells/well for the first, 22500 cells/well for the second.

B3 and B4 cannot be ordered by “Bone Marrow Proliferation Assay: Cells/Well after 10 Day Culture of CD34+ enriched cells” value: < 500 cells/well for the first, < 500 cells/well for the second.

Source: patent US6254870, “Thrombopoietin: IL-3 fusion protein” (G. D. Searle & Co., dated 2001)
